These results are taken from US20240343803A1 (SHANDONG SIMCERE BIOPHARMACEUTICAL, published 2024).

Assay [1] concerns the target T1, Fusion protein of extracellular domain of human TIGIT and His-tag (human TIGIT ECD-his) (human).
T1 chain: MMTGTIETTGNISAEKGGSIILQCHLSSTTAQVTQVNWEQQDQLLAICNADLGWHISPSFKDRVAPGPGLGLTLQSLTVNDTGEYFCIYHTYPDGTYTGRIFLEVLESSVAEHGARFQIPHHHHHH
The experiment in a line: BIAcore. A general note: SPR reads the build-up and loss of mass on a sensor chip optically.

For assay [2], the target named is T1, Fusion protein of extracellular domain …. The experiment in a line: BIAcore (second series).
The target in assay [3] is T2, Fusion protein of extracellular domain of human TIGIT and mouse IgG2a Fc fragment (human TIGIT ECD-mFc) (human).
T2 construct: The entry includes the signal peptide (limits not recoverable) and the mouse IgG2a Fc
T2 chain: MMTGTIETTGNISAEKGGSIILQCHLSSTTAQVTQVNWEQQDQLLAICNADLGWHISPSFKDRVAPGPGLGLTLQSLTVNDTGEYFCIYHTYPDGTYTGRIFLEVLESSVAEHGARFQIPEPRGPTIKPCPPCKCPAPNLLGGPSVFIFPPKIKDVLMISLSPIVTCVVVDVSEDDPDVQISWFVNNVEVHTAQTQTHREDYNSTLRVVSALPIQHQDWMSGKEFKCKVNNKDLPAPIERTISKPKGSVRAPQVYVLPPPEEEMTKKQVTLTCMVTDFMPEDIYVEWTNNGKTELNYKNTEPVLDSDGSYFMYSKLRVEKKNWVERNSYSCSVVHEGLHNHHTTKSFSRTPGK
The experiment in a line: ELISA, human TIGIT ECD-mFc. The essentials: (§1)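 Antibodies diluted to 13 nM in 1% BSA, then 3-fold serial dilution for 12 concentrations, incubated with milk-blocked plates at 37° C for 1.5-2 h. Bound antibody detected with HRP-labelled secondary antibody (1:5000, 37° C, 1 h) and TMB, stopped with 1M HCl; OD450 nm read.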

Assay [4] addresses T1, Fusion protein of extracellular domain …. The assay can be described thus: BIAcore; KD ratio to TIGIT-CHI-005.
The target of assay [5] is T3, Fusion protein of extracellular domain of cynomolgus monkey TIGIT and mouse IgG2a Fc fragment (cynomolgus … (cynomolgus monkey)).
T3 construct: The entry includes the signal peptide (limits not recoverable) and the mouse IgG2a Fc
The assay can be described thus: ELISA, cynomolgus monkey TIGIT ECD-mFc. The essentials:
as §1
A general note: An ELISA detects its analyte on a solid surface through an enzyme-linked reagent.

The target of assay [6] is T4, Full-length cynomolgus monkey TIGIT on CHO-K1 cells (CHO-K1 cynomolgus monkey TIGIT) (cynomolgus monkey).
T4 construct: NCBI XP_015300911.1
The experiment in a line: cell binding, CHO-K1 cynomolgus monkey TIGIT. The essentials: (§2)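 Binding was measured by flow cytometry after a 60-minute, 4° C incubation of the antibodies with 2×10⁵ CHO-K1 cells displaying full-length human or cynomolgus monkey TIGIT. Antibody titration: 12 points, threefold serial dilution from 80 nM, in 1% BSA-PBS.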

Assay [7] addresses T1, Fusion protein of extracellular domain …. The assay can be described thus: BIAcore (second series); serves as reference of r34-r37.
For assay [8], the target named is T5, Fusion protein of extracellular domain of human TIGIT and human IgG1 Fc fragment (human TIGIT ECD-hFc) (human).
T5 construct: The entry includes the signal peptide (limits not recoverable) and the human IgG1 Fc
The assay can be described thus: blocking of TIGIT ECD-hFc binding to CHO-K1 CD155 cells. The method, boiled down: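 Inhibition was expressed as IC50 values derived from the inhibition curves of a cell-based ELISA. CHO-K1 CD155 cells were cultured overnight, fixed, and blocked with 5% skim milk-PBS. Antibodies were first premixed for 0.5 h with human TIGIT ECD-hFc at a working concentration of 30 ng/mL, and the mixture was then added to the cells for 1.5-2 h at 37° C. Bound TIGIT was detected with HRP secondary antibody (1:5000, 37° C, 1 h) and TMB, and read as OD450 nm.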

The target in assay [9] is T6, Full-length human TIGIT on CHO-K1 cells (CHO-K1 human TIGIT) (human, UniProt Q495A1 22-244).
T6 construct: NCBI XP_024309156.1; the entry includes the signal peptide (limits not recoverable); The strain (high, medium, low) is named under assay; also called high expression strain 1D2; medium expression strain 2D10
T6 sequence: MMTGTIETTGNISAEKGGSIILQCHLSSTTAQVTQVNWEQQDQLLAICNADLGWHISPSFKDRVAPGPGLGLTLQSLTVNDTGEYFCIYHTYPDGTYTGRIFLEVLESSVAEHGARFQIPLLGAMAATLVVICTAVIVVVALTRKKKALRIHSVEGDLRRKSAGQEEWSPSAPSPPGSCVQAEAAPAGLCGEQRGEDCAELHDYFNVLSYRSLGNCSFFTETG
The experiment in a line: cell binding, CHO-K1 human TIGIT high expression strain. The method, boiled down: as §2

Assay [10] concerns the target T7, human PVRIG on FlpinCHO-PVRIG cells (human, UniProt Q6DKI7 41-326).
T7 construct: whole, on cells; also called FlpinCHO-hPVRIG; FlpinCHO-human PVRIG
T7 sequence (looked up): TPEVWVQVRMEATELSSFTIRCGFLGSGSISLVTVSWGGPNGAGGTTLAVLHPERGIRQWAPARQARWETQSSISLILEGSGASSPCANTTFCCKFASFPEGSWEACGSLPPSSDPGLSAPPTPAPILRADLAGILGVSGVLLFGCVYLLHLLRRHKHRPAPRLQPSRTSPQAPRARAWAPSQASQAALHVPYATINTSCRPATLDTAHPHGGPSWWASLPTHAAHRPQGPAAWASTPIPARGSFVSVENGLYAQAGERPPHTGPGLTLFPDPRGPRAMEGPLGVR
The assay can be described thus: FACS, FlpinCHO-hPVRIG cells. On the procedure:
(§3) CHO-K1 stable cells ([…]-61™) transfected with human or cynomolgus monkey PVRIG high expression plasmids were named FlpinCHO-hPVRIG and FlpinCHO-cynoPVRIG. […] After discarding the cell culture medium, the cells were rinsed with PBS and digested for 8-10 minutes by adding 1 mL Versene (Gibico, 15040-066). The Ham's F12 (Gibico, 21127-022) complete medium containing 10% FBS was then added to terminate the digestion and acquire cell suspension. After cell counting, an appropriate amount of cell suspension was centrifuged at 350×g to remove the supernatant, washed twice with PBS, stained with Zombie violet (Biolegend, 423114) and incubated at room temperature for 20 minutes. After incubation, the cells were added with staining buffer (2% FBS+PBS) to stop staining, centrifuged at 350×g to remove the supernatant, washed twice and resuspended with staining buffer to a density of 2×10⁶ cells/mL. The cells were plated into a 96-well plate (50 μL of cell suspension per well) for further use. The antibodies were diluted from the highest concentration of 46 nM (two-fold concentration) with staining buffer by 3.3-fold serial dilution. The diluted antibodies were added to the well containing 50 μL of cell suspension. […] After staining, the cells were washed twice with staining buffer, finally resuspended with 200 μL staining buffer and analyzed by flow cytometry (BD, Canto II).
(In general: In flow cytometry, cells or beads pass a laser one at a time.)

The target in assay [11] is T8, cynomolgus monkey PVRIG on FlpinCHO-cyno PVRIG cells (cynomolgus monkey, UniProt A0A2K5WVV8 41-322).
T8 construct: whole, on cells; also called FlpinCHO-cynomolgus monkey PVRIG
T8 sequence: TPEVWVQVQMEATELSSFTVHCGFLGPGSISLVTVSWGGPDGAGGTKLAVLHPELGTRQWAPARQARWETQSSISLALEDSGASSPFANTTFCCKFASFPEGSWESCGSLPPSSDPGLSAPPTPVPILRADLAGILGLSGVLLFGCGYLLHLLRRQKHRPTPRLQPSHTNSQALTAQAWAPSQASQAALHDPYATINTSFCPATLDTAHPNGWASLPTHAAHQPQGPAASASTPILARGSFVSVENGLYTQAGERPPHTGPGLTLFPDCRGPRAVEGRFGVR
The assay can be described thus: FACS, FlpinCHO cynomolgus monkey PVRIG cells. As to the method:
as §3

The target in assay [12] is T9, human PVRIG-mFc protein (Acro, PVG-H5253) (human, UniProt Q6DKI7 41-171, limits assumed).
T9 construct: bought reagent; also called PVRIG-ECD-mFc
T9 sequence (looked up): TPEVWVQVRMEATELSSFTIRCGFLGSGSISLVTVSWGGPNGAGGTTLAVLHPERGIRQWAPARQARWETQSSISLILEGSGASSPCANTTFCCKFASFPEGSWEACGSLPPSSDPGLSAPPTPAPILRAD
The experiment in a line: competition FACS; blocked: PVRIG-mFc binding to CHO-K1 CD112 cells. As to the method: The Ham's F12 (Gibico, 21127-022) complete medium containing 10% FBS was then added to stop the digestion and acquire cell suspension. After counting with a cell counter (Beckman Coulter, Vi-CELL), an appropriate amount of cell suspension was centrifuged at 350×g to remove the supernatant, washed twice with PBS, stained with Zombie violet (Biolegend, 423114) and incubated at room temperature for 20 minutes. After incubation, the cells were added with staining buffer (2% FBS+PBS) to stop staining, centrifuged at 350×g to remove the supernatant, washed twice and resuspended with staining buffer to a density of 2×10⁶ cells/mL. The cells were plated into a 96-well plate (50 μL of cell suspension per well) for further use. A working solution of human PVRIG-mFc protein (Acro, PVG-H5253) prepared with staining buffer, 1 μg/mL (four-fold concentration), was added into a 96-well plate (50 μL PVRIG-mFc working solution per well). […] The diluted antibodies were added to the well containing 50 μL of PVRIG-mFc. The plate was placed on a microplate shaker at 400 rpm for 1 minute to fully mix the antibodies and PVRIG-mFc proteins, and then incubated at 4° C. for 30 minutes. After the incubation, the cell suspension prepared above (100 μL) was added into the wells, gently mixed with the pipette tip and incubated at 4° C. for 30 minutes. After the incubation, the cells were washed twice with staining buffer (200 μL per well) and centrifuged at 350×g for 5 minutes to discard the supernatant. The PE goat anti-mouse IgG Fc antibody (Biolegend, 405337) was diluted 250 times with staining buffer, added into the washed wells (100 μL per well), mixed well, and stained at 4° C. for 30 minutes. After staining, the cells were washed twice with staining buffer, finally resuspended with 200 μL staining buffer and analyzed by flow cytometry (BD, Canto II). The weaker the fluorescence signal, the stronger the ability of the antibodies blocks the binding of CHO-K1 human CD112 cells to the PVRIG-mFc protein.

“And” between values parts separate entries of the source, which are not always exact repeats. Equal values may be shown once.

As a reminder, the Kd is the equilibrium constant for the complex coming apart. By koff is commonly meant the rate constant with which the complex falls apart. By kon is commonly meant the rate constant with which the complex forms. As a reminder, the EC50 is the concentration giving half of the maximal effect. A word on the IC50: it is the concentration that gives 50% inhibition. A word on the EC50 (read off the curve): it is the midpoint of the concentration-response curve.

T4 sequence (chain, as listed by the source limits assumed): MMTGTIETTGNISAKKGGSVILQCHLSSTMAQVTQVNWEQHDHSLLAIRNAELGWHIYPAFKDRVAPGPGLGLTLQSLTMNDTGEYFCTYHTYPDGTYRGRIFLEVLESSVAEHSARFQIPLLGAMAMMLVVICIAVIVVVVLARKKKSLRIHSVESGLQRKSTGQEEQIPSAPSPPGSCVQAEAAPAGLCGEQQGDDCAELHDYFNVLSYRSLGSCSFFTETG

B1: TIGIT-005-H2L1 (antibody, V domains shown)
VH: EVQLVQSGAEVKKPGASVKVSCKASGYAFTNYLIEWVRQAPGQRLEWMGVINPGSGGTNYKEKFKGRVTITADKSSSTAYMELSSLRSEDTAVYYCARGEYFFFDYWGQGTTVTVSS
VL: DIVMTQSPDSLAVSLGERATINCKASQHVSNGVAWYQHKPGQSPKLLIYSASYRYTGVPDRFSGSGSGTDFTLTISSLQAEDVAVYYCQQHYNTPHTFGGGTKVEIK
notes: Humanized anti-TIGIT antibody
Take B1: the dissociation constant (Kd) was determined as 0.0378 nM in assay [1] and 0.0742 nM in assay [2]. Moreover, the koff was found to be 0.000161 s⁻¹ in assay [1] and 0.000263 s⁻¹ in assay [2]. For the same molecule, the kon was found to be 4.26e+06 M⁻¹ s⁻¹ in assay [1] and 3.54e+06 M⁻¹ s⁻¹ in [2]. The EC50 in assay [3] was 0.0141 nM and 0.0247 nM; in [5] it was 0.0145 nM and 0.0393 nM; in assay [6], 0.0199 nM and 0.047 nM; in assay [9] it was 0.0281 nM and 0.0272 nM. The “Fold change vs chimeric antibodies (KD)” value in assay [4] was found to be 1.37 fold; in [7] it was 1 fold. In addition, the IC50 in assay [8] is 0.321 nM and 0.389 nM.

B2: PVRIG-A105-H1 (VHH)
VHH: EVQLVESGGGLVQPGGSLRLSCAASGRTFDRHTMSWFRQAPGKEREFVATASRIPGDTYYVDSVKGRFTISRDNAKNSLYLQMNSLRAEDTAVYYCAATSAYCSEVDCYEKGSWYDNWGQGTMVTVSS
notes: humanized VHH; also called A105.VH1
Regarding B2, the “EC50 (read off the curve)” value was ~0.5 nM in [10] and ~0.4 nM in assay [11]. Further, in assay [12], the “IC50 (read off the curve)” value is ~1 nM.
